Experimental data as given in PMC10758951 (2023).
No end group written: not given here.

B1: BRD3-BD1 25-147 (protein)
chain: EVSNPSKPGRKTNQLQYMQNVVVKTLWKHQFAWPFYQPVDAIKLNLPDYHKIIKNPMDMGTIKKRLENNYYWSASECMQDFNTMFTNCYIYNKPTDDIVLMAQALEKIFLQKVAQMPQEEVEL
B2: 2AcK (peptide)
chain: K(Ac)LLK(Ac)HLYH
B3: BRD2-BD1 65-194 (protein)
chain: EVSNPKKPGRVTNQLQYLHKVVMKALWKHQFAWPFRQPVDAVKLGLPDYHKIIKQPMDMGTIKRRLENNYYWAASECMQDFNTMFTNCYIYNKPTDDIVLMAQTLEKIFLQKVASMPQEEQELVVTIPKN

What was measured:
[1] = target: B2; assay: ITC
[2] = target: B2; assay: SPR
[3] = target: BRD4-BD1 42-168 (Homo sapiens, UniProt O60885); assay: SPR

In the case of B1, the Kd [1] is reported as 10 µM and the Kd [2] is reported as 2000 nM.

Binder B2 has a Kd [3] of 1000 nM.

Binder B3 has a Kd [2] of 2000 nM.
